In publication PMC9638026, “DNA double-strand break-derived RNA drives TIRR/53BP1 complex dissociation”:

Legend:
[1] = target: TIRR (6-211)-His (UniProt Q9BRJ7 6-211); experiment: SPR; SPR: 20 mM HEPES pH 6, 300 mM NaCl, 0.05% P20, 25 C; EMSA: 50 mM HEPES, 50 mM NaCl, 5% glycerol, 20 mM MgCl2, 0.01% Tween 20, 37 C 15 min, 10 nM probe; settings: protein: recombinant, tags: His
[2] = target: 53BP1-Tudor (Homo sapiens, UniProt Q12888 1484-1603); experiment: EMSA; 20 mM Mg2+; SPR: 20 mM HEPES pH 6, 300 mM NaCl, 0.05% P20, 25 C; EMSA: 50 mM HEPES, 50 mM NaCl, 5% glycerol, 20 mM MgCl2, 0.01% Tween 20, 37 C 15 min, 10 nM probe; settings: protein: commercial; label: 32P 5' in EMSA; hairpin
Sequence of 53BP1-Tudor (Q12888 1484-1603): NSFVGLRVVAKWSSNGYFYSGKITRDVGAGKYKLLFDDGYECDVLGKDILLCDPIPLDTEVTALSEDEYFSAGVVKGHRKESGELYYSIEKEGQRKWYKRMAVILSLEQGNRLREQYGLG

Sequence of TIRR (6-211)-His (Q9BRJ7 6-211): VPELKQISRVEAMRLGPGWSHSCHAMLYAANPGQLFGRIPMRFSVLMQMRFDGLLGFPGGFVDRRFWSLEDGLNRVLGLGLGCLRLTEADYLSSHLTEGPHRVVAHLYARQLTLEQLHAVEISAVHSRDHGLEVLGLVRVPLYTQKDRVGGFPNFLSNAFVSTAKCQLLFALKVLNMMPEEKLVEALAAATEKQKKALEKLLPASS

B1: dsRNA (dsRNA)
RNA 1: GGACAAGAUGCCUUAUGUGG
RNA 2: CCACAUAAGGCAUCUUGUCC
Question: Which Kd ([1]; blunt) does the source give for B1 here?
Answer: ~200 µM

Question: What does the source list for CGCUCCCAAAAAAAAAAACCGAGCG (structured_RNA) [RNA beacon]?
Answer: Kd ([1]; label: 32P 5' in EMSA, hairpin): ~100 µM; binding result [2]: no binding

Question: For GGACAAGAUGCCUUAUGUGGACUUCACCACAUAAGGCAUCUUGUCC (structured_RNA) [RNA hairpin], which Kd ([1]; hairpin) is on record?
Answer: ~100 µM
